# T1: His-DLL3胞外区蛋白 (Human DLL3 Protein, His Tag, ACRO DL3-H52H4) (human, UniProt Q9NYJ7 27-492)
# T1 construct: extracellular domain; Bought protein; also called DLL3-His; DLL3抗原; not shown: His tag
# T1 sequence (looked up): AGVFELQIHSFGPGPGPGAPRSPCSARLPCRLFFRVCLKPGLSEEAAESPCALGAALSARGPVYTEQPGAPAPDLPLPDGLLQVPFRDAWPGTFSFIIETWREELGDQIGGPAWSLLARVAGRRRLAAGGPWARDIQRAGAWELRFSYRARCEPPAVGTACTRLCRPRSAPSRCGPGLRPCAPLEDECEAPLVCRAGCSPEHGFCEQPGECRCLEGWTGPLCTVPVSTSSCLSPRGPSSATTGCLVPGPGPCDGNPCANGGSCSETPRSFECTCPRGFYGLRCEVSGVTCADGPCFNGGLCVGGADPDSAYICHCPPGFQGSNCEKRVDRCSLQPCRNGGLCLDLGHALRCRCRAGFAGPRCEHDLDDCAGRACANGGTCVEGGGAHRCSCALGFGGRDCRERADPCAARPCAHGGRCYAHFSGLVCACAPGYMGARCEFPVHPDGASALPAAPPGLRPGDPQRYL
# T2: 小细胞肺癌细胞系SHP-77上表达的DLL3抗原 (UniProt Q9NYJ7 27-618)
# T2 construct: whole, on cells; Endogenous DLL3 on SHP-77 cells; also called DLL3 on SHP-77 cells
# T2 sequence (looked up): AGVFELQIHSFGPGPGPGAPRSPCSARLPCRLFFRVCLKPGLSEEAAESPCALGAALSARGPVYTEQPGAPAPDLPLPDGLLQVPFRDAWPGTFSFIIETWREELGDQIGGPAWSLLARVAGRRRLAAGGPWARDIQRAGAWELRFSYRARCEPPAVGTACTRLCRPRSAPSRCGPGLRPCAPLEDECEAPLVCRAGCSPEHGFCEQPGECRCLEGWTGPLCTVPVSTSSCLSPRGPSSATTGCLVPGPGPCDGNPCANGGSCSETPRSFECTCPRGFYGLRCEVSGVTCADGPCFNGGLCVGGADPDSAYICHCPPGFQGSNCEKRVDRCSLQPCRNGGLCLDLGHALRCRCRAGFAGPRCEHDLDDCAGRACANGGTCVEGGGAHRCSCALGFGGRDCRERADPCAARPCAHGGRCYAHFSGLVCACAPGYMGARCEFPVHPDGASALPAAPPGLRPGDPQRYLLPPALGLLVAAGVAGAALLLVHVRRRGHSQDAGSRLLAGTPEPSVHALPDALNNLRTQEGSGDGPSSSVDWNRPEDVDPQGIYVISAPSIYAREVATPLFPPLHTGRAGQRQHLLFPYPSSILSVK
# Columns and labels:
# [1] = biological target: T1, His-DLL3胞外区蛋白 (Human DLL3 Protein, His …); experiment: phage ELISA, scFv shown on M13 phage, coated DLL3-His 1 ug/ml, anti-M13-HRP
# [2] = biological target: T3, BSA(牛血清白蛋白) (bovine, UniProt P02769 25-607); experiment: ELISA, periplasmic extract with soluble scFv on coated BSA, anti-c-myc-HRP detection
# T3 sequence (P02769 25-607 limits assumed): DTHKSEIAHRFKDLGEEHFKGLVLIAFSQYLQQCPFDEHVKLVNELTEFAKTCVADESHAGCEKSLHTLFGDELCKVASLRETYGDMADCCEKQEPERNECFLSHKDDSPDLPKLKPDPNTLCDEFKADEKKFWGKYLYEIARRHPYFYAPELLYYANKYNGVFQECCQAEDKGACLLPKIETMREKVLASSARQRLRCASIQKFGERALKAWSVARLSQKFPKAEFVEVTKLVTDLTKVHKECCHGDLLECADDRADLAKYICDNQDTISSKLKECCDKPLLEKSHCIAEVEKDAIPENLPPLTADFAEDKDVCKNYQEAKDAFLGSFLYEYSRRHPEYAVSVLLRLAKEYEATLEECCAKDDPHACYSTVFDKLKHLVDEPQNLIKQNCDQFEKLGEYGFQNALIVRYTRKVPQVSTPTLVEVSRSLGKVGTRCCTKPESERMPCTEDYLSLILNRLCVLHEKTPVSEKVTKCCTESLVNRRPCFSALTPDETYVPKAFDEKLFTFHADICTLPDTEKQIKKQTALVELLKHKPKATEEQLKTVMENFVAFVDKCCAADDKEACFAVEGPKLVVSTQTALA
# [3] = biological target: T1, His-DLL3胞外区蛋白 (Human DLL3 Protein, His …); experiment: ELISA, 293T culture supernatant, coated DLL3-His 1 ug/ml, anti-human IgG-Fc-HRP
# [4] = biological target: T3, BSA(牛血清白蛋白); experiment: ELISA, 293T culture supernatant on coated BSA, anti-human IgG-Fc-HRP detection
# [5] = biological target: T2, 小细胞肺癌细胞系SHP-77上表达的DLL3抗原; experiment: flow cytometry on SHP-77 cells, PE anti-human Fc detection
Binder,binding result [1],binding result [2],binding result [3],binding result [4],binding result [5]
"抗DLL3 scFv G8 (G8-scFv) (scFv, Fully human scFv from a phage library; also called 抗DLL3阳性克隆G8; 抗DLL3可溶性抗体G8) scFv: QVQLQQSGPGLVKPSQTLSLTCAISGDSVSSDSVAWSWIRQSPSRGLEWLGRTYYRSKWYYDYAASVKSRISINPDTSKNQFSLQLNSVTPEDTAVYYCAREPLRYGSSWWDAFDIWGQGTMITVSSGSASAPTLGGGGSGGGGSGGGGSQSALTQPPSVSGSPGQAVTISCTGTSSDVGRYNYVSWYQQHPGKVPKLILFDVSSRPSGVSHRFSGSKSGNTASLTISGLQAEDEADYYCTSYRSGSEVFGGGTKLTVL",binds,no binding,–,–,–
"G8 scFv-hFc (Fc fusion, Expressed in 293T cells and tested as culture supernatant; also called G8 scFv-hFc重组蛋白; not shown: human IgG1 Fc segment from the mammalian expression vector PUTAM003) QVQLQQSGPGLVKPSQTLSLTCAISGDSVSSDSVAWSWIRQSPSRGLEWLGRTYYRSKWYYDYAASVKSRISINPDTSKNQFSLQLNSVTPEDTAVYYCAREPLRYGSSWWDAFDIWGQGTMITVSSGSASAPTLGGGGSGGGGSGGGGSQSALTQPPSVSGSPGQAVTISCTGTSSDVGRYNYVSWYQQHPGKVPKLILFDVSSRPSGVSHRFSGSKSGNTASLTISGLQAEDEADYYCTSYRSGSEVFGGGTKLTVL",–,–,binds,no binding,binds
"抗DLL3 scFv A7 (A7-scFv) (scFv, Fully human scFv from a phage library; also called 抗DLL3阳性克隆A7; 抗DLL3可溶性抗体A7) scFv: QVQLVQSGAEVKKPGASVKVSCKASGYTFTSYYMHWVRQAPGQGLEWMGIINPSGGSTSYAKKFQGRVTMTRDTSTSTVYMELNRVTSDDTAVYYCARGGGVTGFDYWGQGTLVTVSSGSASAPTLGGGGSGGGGSGGGGSDIQMTQSPSSLSASLGDRVTITCRASQTVRTYLNWYQQKPGKAPNLLIYGASSLQSGVPSRFSGSGSGTDFTLTINSLQPEDFGTYYCQQSDTPPLTFGGGTKVEIK",binds,no binding,–,–,–
"A7 scFv-hFc (Fc fusion, Expressed in 293T cells and tested as culture supernatant; also called A7 scFv-hFc重组蛋白; 抗DLL3单链抗体(scFv-hFc); not shown: human IgG1 Fc segment from the mammalian expression vector PUTAM003) QVQLVQSGAEVKKPGASVKVSCKASGYTFTSYYMHWVRQAPGQGLEWMGIINPSGGSTSYAKKFQGRVTMTRDTSTSTVYMELNRVTSDDTAVYYCARGGGVTGFDYWGQGTLVTVSSGSASAPTLGGGGSGGGGSGGGGSDIQMTQSPSSLSASLGDRVTITCRASQTVRTYLNWYQQKPGKAPNLLIYGASSLQSGVPSRFSGSGSGTDFTLTINSLQPEDFGTYYCQQSDTPPLTFGGGTKVEIK",–,–,binds,no binding,binds

# Source: patent CN114181311A (dated 2022)
